Patent US20250189530A1 (STCUBE, published 2025)
Changes are numbered by the printed parent chain. Where two headings read alike, the source gives them in different places.

T1: BTN1A1 Peptide 4 (human)
T1 construct: also called BTN1A1-pep4- WT; Pep4
T1 peptide: EVEVGDRTDWAIGVC

T2: denatured hBTN1A1 ICD (human, UniProt Q13410 270-526)
T2 construct: Same protein as hBTN1A1 ICD, denatured before the ELISA; also called hBTN1A1 ICD denatured; Denatured ICD
T2 sequence: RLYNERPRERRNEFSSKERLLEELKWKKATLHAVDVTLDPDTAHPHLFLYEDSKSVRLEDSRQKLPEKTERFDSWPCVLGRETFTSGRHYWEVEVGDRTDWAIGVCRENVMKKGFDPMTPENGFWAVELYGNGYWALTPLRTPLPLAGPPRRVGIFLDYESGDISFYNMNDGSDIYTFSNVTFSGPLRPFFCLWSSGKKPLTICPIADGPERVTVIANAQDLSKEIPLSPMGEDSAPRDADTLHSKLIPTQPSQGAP

T3: hBTN1A1 ICD (human, UniProt Q13410 270-526)
T3 sequence: T2 sequence

T4: hBTN1A1-His (human, UniProt Q13410)
T4 construct: also called human BTN1A1-His
T4 sequence (antigen, looked up): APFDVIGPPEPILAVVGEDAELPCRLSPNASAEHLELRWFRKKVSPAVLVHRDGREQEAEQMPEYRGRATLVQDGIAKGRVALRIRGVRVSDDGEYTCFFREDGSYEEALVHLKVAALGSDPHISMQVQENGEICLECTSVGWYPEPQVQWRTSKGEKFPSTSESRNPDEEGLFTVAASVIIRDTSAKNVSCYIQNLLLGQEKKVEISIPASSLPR

T5: ECD1 Peptide
T5 construct: also called BTN1A1 ECD1
T5 peptide: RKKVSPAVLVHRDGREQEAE

B1: STC85F1-1 (antibody, V domains shown)
VH: QSLEESGGRLVTPGGSLTLTCTVSGIDLSRYGVNWVRQAPGKGLEWIGYIGTTSNTYYASWAKGRFTISKTSSTTVDLKMTSLTTEDTATYFCARSVVSPSNSSFWGQGTLVTVSS
VL: DPVMTQTPSSTSAAVGGTVTINCQSSQSVYNNKNLSWFQQKPGQPPKLLIYRASTLPSGVPSRFKGSGSGTQFTLTISDLECDDAATYYCAGGYSGDINVFGGGTEVVVK
notes: From immunized New Zealand rabbits; IgG heavy chain and Kappa light chain; Variable domains without signal peptide; also called clone #85F1-1
B2: STC43G3-1 (antibody, V domains shown)
VH: QSLEESGGRLVTPGTPLTLTCTVSGIDLSRYGVNWVRQAPGKGLEWIGYIGTTGNTYYASWVNGRFTISKTSTTVELKMTSLTAADTATYFCARSVVSPSNSSFWGQGTLVTVSS
VL: B1 VL with K33N, T55K, S62P, K65S, D79S, L80V, E81Q, Y89F
notes: From immunized New Zealand rabbits; IgG heavy chain and Kappa light chain; Variable domains without signal peptide; also called clone #43G3-1

Legend:
BTN1A1 Peptide 4 [1] = biological target: T1, BTN1A1 Peptide 4; experiment: ELISA clone screen, STCube, negative control
denatured hBTN1A1 ICD [2] = biological target: T2, denatured hBTN1A1 ICD; experiment: ELISA clone screen, STCube, negative control
hBTN1A1 ICD [3] = biological target: T3, hBTN1A1 ICD; experiment: ELISA clone screen, STCube, negative control
BTN1A1 Peptide 4 [4] = biological target: T1, BTN1A1 Peptide 4; experiment: ELISA clone screen, GenScript, negative control
denatured hBTN1A1 ICD [5] = biological target: T2, denatured hBTN1A1 ICD; experiment: ELISA clone screen, GenScript, negative control
hBTN1A1 ICD [6] = biological target: T3, hBTN1A1 ICD; experiment: ELISA clone screen, GenScript, negative control
hBTN1A1-His [7] = biological target: T4, hBTN1A1-His; experiment: ELISA clone screen
KLH Only = KLH Only (keyhole limpet); experiment: ELISA clone screen
Sequence of KLH Only (keyhole limpet) (Q10583 17-3414): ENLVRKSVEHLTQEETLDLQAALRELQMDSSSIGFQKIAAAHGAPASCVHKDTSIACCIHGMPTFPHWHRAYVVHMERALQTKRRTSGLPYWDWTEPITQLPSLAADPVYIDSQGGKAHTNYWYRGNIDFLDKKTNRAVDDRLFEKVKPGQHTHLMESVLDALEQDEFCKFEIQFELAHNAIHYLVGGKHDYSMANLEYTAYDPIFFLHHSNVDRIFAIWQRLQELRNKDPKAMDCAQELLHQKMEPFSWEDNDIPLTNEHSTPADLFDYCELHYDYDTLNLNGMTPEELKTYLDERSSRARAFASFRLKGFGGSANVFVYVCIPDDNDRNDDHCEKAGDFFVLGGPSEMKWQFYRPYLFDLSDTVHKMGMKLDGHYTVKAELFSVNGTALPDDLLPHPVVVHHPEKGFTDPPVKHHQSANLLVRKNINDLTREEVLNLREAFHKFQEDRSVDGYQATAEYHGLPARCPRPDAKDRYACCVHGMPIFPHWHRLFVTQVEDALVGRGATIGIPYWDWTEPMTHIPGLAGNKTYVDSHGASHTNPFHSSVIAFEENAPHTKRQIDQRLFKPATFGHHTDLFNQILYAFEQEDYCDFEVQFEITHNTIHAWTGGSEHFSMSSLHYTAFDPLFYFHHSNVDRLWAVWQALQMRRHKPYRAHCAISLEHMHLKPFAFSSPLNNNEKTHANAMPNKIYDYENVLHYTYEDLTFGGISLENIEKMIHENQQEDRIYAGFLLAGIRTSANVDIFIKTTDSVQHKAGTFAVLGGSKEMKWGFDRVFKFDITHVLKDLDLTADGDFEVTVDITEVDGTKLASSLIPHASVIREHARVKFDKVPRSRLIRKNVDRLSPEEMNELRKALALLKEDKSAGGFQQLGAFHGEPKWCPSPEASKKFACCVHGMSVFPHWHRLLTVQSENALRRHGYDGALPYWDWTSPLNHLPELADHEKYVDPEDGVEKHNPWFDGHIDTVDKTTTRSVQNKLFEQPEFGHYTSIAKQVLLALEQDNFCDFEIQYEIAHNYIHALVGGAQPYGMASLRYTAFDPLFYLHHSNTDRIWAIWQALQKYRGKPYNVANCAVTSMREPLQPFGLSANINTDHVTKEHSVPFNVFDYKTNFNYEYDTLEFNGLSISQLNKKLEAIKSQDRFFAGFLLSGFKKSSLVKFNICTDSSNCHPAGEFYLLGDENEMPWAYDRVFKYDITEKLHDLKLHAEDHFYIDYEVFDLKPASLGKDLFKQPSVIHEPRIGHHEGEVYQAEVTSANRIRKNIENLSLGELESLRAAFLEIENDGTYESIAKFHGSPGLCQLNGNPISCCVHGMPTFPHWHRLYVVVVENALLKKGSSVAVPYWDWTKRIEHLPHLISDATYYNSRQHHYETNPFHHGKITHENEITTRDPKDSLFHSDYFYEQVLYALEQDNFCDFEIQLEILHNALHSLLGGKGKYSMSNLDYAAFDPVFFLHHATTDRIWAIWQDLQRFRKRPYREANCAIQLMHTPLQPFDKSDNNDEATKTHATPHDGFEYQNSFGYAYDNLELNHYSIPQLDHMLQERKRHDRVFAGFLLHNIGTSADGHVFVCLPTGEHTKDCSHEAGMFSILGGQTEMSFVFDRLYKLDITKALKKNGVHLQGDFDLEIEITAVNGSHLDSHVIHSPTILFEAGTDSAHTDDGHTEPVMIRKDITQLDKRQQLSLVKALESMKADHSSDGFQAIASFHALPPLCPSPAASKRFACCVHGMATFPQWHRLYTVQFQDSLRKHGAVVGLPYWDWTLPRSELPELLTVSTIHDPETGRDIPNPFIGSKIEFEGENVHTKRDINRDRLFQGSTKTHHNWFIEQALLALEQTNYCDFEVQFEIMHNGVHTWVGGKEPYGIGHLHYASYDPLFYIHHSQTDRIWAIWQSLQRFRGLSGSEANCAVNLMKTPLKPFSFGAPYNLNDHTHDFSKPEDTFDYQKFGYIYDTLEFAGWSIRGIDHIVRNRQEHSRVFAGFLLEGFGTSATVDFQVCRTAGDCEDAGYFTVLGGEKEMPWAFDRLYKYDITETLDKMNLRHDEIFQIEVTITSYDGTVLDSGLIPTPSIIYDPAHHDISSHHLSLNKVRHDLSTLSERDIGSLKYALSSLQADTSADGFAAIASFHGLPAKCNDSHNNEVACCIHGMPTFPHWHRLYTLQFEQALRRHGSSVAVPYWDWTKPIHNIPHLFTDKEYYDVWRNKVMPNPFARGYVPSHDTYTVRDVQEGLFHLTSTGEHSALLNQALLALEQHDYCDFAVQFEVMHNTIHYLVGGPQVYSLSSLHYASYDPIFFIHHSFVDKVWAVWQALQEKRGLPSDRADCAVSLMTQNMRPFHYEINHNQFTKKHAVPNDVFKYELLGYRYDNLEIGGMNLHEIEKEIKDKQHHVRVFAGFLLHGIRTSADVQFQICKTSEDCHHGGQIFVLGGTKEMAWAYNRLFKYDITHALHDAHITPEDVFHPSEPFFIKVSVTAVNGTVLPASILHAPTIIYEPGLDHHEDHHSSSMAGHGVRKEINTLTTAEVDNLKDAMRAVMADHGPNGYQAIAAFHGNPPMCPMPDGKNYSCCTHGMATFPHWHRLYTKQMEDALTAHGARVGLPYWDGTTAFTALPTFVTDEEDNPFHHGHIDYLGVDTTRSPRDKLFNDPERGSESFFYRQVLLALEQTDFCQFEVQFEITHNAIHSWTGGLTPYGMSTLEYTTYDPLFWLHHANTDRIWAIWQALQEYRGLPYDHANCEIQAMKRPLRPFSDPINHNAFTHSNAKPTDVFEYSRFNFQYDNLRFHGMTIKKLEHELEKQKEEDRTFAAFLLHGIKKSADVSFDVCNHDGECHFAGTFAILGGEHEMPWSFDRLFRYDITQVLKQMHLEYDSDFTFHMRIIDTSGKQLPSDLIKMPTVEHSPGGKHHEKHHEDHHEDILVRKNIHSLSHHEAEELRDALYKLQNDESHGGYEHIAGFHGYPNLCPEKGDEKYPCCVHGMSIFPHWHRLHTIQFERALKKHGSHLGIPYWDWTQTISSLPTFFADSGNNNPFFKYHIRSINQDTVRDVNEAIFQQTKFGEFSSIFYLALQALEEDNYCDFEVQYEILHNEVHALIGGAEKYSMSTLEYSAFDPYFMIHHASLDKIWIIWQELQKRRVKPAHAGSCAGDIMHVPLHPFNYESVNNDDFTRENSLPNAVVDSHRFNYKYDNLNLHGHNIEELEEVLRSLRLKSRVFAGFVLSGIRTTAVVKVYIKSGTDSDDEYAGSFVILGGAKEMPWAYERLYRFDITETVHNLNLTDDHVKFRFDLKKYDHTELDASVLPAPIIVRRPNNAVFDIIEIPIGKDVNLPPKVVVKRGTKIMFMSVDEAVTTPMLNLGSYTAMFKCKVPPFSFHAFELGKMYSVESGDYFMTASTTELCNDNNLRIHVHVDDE

ECD1 Peptide = biological target: T5, ECD1 Peptide; experiment: ELISA clone screen
hBTN1A1-His [8] = biological target: T4, hBTN1A1-His; experiment: ELISA, titration of purified antibody
hBTN1A1-His [9] = biological target: T4, hBTN1A1-His; experiment: ELISA, titration of purified antibody; remark: listed apart in the source

| Molecule | ELISA signal (BTN1A1 Peptide 4 [1]) | ELISA signal (denatured hBTN1A1 ICD [2]) | ELISA signal (hBTN1A1 ICD [3]) | ELISA signal (BTN1A1 Peptide 4 [4]) | ELISA signal (denatured hBTN1A1 ICD [5]) | ELISA signal (hBTN1A1 ICD [6]) | O.D. 450 nm (hBTN1A1-His [7]) | O.D. 450 nm (KLH Only) | O.D. 450 nm (ECD1 Peptide) | EC50 (read off the curve) (hBTN1A1-His [8]) | EC50 (read off the curve) (hBTN1A1-His [9]) |
| --- | --- | --- | --- | --- | --- | --- | --- | --- | --- | --- | --- |
| Negative (control of the clone screen ELISA) | 0.048 | 0.041 | 0.04 | 0.074 | 0.062 | 0.063 | – | – | – | – | – |
| B1 | – | – | – | – | – | – | 2.91 | 0.051 | 3.18 | ~0.02 µg/mL | – |
| B2 | – | – | – | – | – | – | 2.1 | 0.052 | 2.66 | – | ~0.02 µg/mL |
